Stoichiometry N, percent of particles in the dimer fraction (125 kDa) and percent of particles in the monomer fraction (64 kDa) data for five substances are collected here from paper doi:10.1101/2024.02.29.582524.

Assay [1] concerns the target Hebeloma cylindrosporum Jps1 (HcJps1) (Hebeloma cylindrosporum). Kind of assay: SEC-MALS.
In assay [2] the target is Sporisorium reilianum Jps1 (SrJps1) (Sporisorium reilianum). Briefly: mass photometry.
Assay [3] shares this target. Briefly: SEC-MALS. (In general: In gel filtration, larger molecules generally elute earlier.)
In assay [4] the target is Ustilago maydis Jps1 lacking the unstructured C-terminus (Jps1^1-484) (Ustilago maydis). Kind of assay: SAXS.
For assay [5] the target is unchanged. Briefly: SEC-MALS.
Assay [6] deals with Ustilago maydis Jps1, full length (Jps1^1-609) (Ustilago maydis). Kind of assay: mass photometry.
The target is the same in assay [7]. Briefly: SEC-MALS.
Assay [8] addresses Ustilago maydis Jps1^1-484 M^5 (alanine replacements of the basic cluster R162, R163, R164) (Ustilago maydis). Kind of assay: SEC-MALS.

With “Hebeloma cylindrosporum Jps1 (HcJps1) (natural protein)”, the stoichiometry N (commonly the number of molecules, sites or subunits per partner or assembly) in assay [1] stood at 2.

Consider “Sporisorium reilianum Jps1 (SrJps1) (natural protein)”, for which the stoichiometry N in assay [2] and in assay [3] was 2 throughout.

For “Ustilago maydis Jps1 lacking the unstructured C-terminus (Jps1^1-484) (domain or fragment)”, the stoichiometry N in assay [4] and in assay [5] was 2 each time.

In assay [6], “Ustilago maydis Jps1, full length (Jps1^1-609) (natural protein)” had a percent of particles in the dimer fraction (125 kDa) of 69%, a percent of particles in the monomer fraction (64 kDa) of 9% and a stoichiometry N of 2. In addition, the stoichiometry N in assay [7] was 2.

Take “Ustilago maydis Jps1^1-484 M^5 (alanine replacements of the basic cluster R162, R163, R164) (domain or fragment)”: the stoichiometry N in assay [8] worked out at 2.
